Assay [1] addresses T1, human glycophorin A in the red blood cell membrane (human, UniProt P02724 20-150).
T1 construct: whole, on cells; used for intact RBC, isolated RBC membranes and transfected cells; the assay field tells which; also called GPA; hGPA
T1 sequence (looked up): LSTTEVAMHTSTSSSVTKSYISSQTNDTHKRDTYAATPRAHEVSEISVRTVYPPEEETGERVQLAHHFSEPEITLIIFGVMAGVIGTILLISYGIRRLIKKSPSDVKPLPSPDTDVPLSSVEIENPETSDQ
As to the kind of experiment: SPR, human RBC membranes, Fab. (Surface plasmon resonance follows binding to a sensor surface in real time, without labels.)
Procedure: Kinetic analysis of the antibody binding to human red blood cell membranes was also performed using surface plasmon resonance (SPR) using a Biacore instrument. In this assay membranes prepared from human red blood cells were attached to a L1 sensor matrix and antibodies were flowed over the RBC membranes.

The target in assay [2] is T2, GP16 peptide (human).
T2 peptide: Biotin-EETGERVQ
Nature of the assay: peptide ELISA, Fab. (In an ELISA, binding on a coated surface is turned into a signal by an enzyme label.)
Source text: (§1) These peptides were attached to the surface of a streptavidin coated plate via a biotin moiety that was present at the N-terminus of each peptide.

For assay [3], the target named is T3, GP14 peptide (human).
T3 peptide: Biotin-PEEETGER
Nature of the assay: peptide ELISA, Fab.
Source text: as §1

The target of assay [4] is T4, GP13 peptide (human).
T4 peptide: Biotin-PPEEETGE
As to the kind of experiment: peptide ELISA, Fab.
Source text: as §1

The target in assay [5] is T5, GP15 peptide (human).
T5 peptide: Biotin-EEETGERV
As to the kind of experiment: peptide ELISA, Fab.
Source text: as §1

Assay [6] addresses T6, GP10 peptide (human).
T6 peptide: Biotin-TVYPPEEE
As to the kind of experiment: peptide ELISA, Fab.
Source text: as §1

For assay [7], the target named is T7, GP11 peptide (human).
T7 peptide: Biotin-VYPPEEET
Nature of the assay: peptide ELISA, Fab.
Source text: as §1

Assay [8] deals with T8, GP7 peptide (human).
T8 peptide: Biotin-SVRTVYPP
Nature of the assay: peptide ELISA, Fab.
Source text: as §1

In assay [9] the target is T9, GP12 peptide (human).
T9 peptide: Biotin-YPPEEETG
As to the kind of experiment: peptide ELISA, Fab.
Source text: as §1

Assay [10] deals with T10, Cynomolgus monkey glycophorin A on Cynomolgus monkey red blood cells or red blood cell membranes (Cynomolgus monkey).
T10 construct: whole, on cells; also called Cyno RBC; Cynomolgus monkey RBC membranes
As to the kind of experiment: Fab 7 ug/ml on intact cyno RBC, unbound Fab by ELISA; pre-dilution.
Procedure: (§2) The binding of affinity matured Fab antibodies to intact Cynomolgus monkey RBC was measured. Cynomolgus monkey RBC were isolated from fresh anti-coagulated blood by centrifugation through a ficol gradient and washing in PBS buffer. RBC diluted to 1/10th of normal hematocrit were incubated with the Fab at a final concentration of 7 ug/ml for 1 hour at room temperature on a rotating shaker after which a sample was taken and the RBC were pelleted by centrifugation and the supernatant was collected. The remaining RBC suspension was diluted 200-fold in PBS buffer and incubated for a total of 2 hours at room temperature on a rotating shaker and samples were removed at 0, 5 min, 20 min, 1 h and 2 h and the RBC pelleted and the supernatant collected. […] The amount of Fab in the supernatants was then measured using an ELISA assay and the results used to calculate the percentage of the input Fab that was bound to the RBC.

The target in assay [11] is T11, human glycophorin A on human red blood cells or red blood cell membranes (human, UniProt P02724 20-150).
T11 construct: whole, on cells; also called hRBC; human RBC membranes
T11 sequence (looked up): T1 sequence (looked up)
Nature of the assay: Fab 7 ug/ml on intact human RBC, unbound Fab by ELISA; pre-dilution.
Procedure: (§3) The binding of affinity matured Fab antibodies to intact human RBC was also measured. Human RBC were isolated from fresh anti-coagulated normal human blood by centrifugation through a ficol gradient and washing in PBS buffer. RBC diluted to 1/10th of normal hematocrit were incubated with purified Fab antibodies at a final concentration of 7 ug/ml for 1 hour at room temperature on a rotating shaker after which a sample was taken and the RBC were pelleted by centrifugation and the supernatant was collected. The remaining RBC suspension was diluted 200-fold in PBS buffer and incubated for a total of 2 hours at room temperature on a rotating shaker and samples were removed at 0, 5 min, 20 min, 1 h and 2 h and the RBC pelleted and the supernatant collected. The amount of Fab in the supernatants was then measured using an ELISA assay and the results used to calculate the percentage of the input Fab that was bound to the RBC. […] The percentage that remains bound after 200-fold dilution of the RBC suspension is an indication of the overall strength of the binding to human RBC.

For assay [12], the target named is T11, human glycophorin A on human red blood …. Nature of the assay: Fab on intact human RBC, unbound Fab by ELISA; 20 min after 200-fold dilution.
Procedure: as §3
In assay [13] the target is T10, Cynomolgus monkey glycophorin A on …. Nature of the assay: Fab on intact cyno RBC, unbound Fab by ELISA; 5 min after 200-fold dilution.
Assay [14] addresses T11, human glycophorin A on human red blood …. Nature of the assay: Fab on intact human RBC, unbound Fab by ELISA; 0 min after 200-fold dilution.
Procedure: as §3
The target of assay [15] is T10, Cynomolgus monkey glycophorin A on …. Nature of the assay: Fab on intact cyno RBC, unbound Fab by ELISA; 20 min after 200-fold dilution.
Procedure: as §2
The target in assay [16] is T11, human glycophorin A on human red blood …. Nature of the assay: Fab on intact human RBC, unbound Fab by ELISA; 5 min after 200-fold dilution.
Assay [17] deals with T10, Cynomolgus monkey glycophorin A on …. Nature of the assay: Fab on intact cyno RBC, unbound Fab by ELISA; 120 min after 200-fold dilution.
Assay [18] deals with T11, human glycophorin A on human red blood …. Nature of the assay: Fab on intact human RBC, unbound Fab by ELISA; 120 min after 200-fold dilution.
For assay [19] the target is unchanged. Nature of the assay: Fab on intact human RBC, unbound Fab by ELISA; 60 min after 200-fold dilution.
Procedure: as §3
For assay [20], the target named is T12, GP15 peptide of the human GPA ectodomain (human, not fully specified (N-terminus)).
T12 peptide: EEETGERV
As to the kind of experiment: ELISA, Fab 0.5 ug/ml on biotin-peptide on streptavidin plate.
Source text: as §1

Assay [21] addresses T13, GP11 peptide of the human GPA ectodomain (human, not fully specified (N-terminus)).
T13 peptide: VYPPEEET
Described as above.
Source text: as §1

Assay [22] has as its target T14, GP14 peptide of the human GPA ectodomain (human, not fully specified (N-terminus)).
T14 peptide: PEEETGER
The assay is described as above.
Source text: as §1

Assay [23] deals with T15, GP16 peptide of the human GPA ectodomain (human, not fully specified (N-terminus)).
T15 peptide: EETGERVQ
The description is as above.
Source text: as §1

In assay [24] the target is T16, GP5 peptide of the human GPA ectodomain (human, N-terminal biotin).
T16 construct: Residues 42 to 61 of the human GPA extracellular domain
The assay is described as above.
Source text: as §1

In assay [25] the target is T17, GP13 peptide of the human GPA ectodomain (human, not fully specified (N-terminus)).
T17 peptide: PPEEETGE
Described as above.
Source text: as §1

Assay [26] concerns the target T18, GP9 peptide of the human GPA ectodomain (human, not fully specified (N-terminus)).
T18 peptide: RTVYPPEE
Described as above.
Source text: as §1

Assay [27] concerns the target T19, GP10 peptide of the human GPA ectodomain (human, not fully specified (N-terminus)).
T19 peptide: TVYPPEEE
The assay is described as above.
Source text: as §1

Assay [28] has as its target T20, GP8 peptide of the human GPA ectodomain (human, not fully specified (N-terminus)).
T20 peptide: VRTVYPPE
The description is as above.
Source text: as §1

Assay [29] deals with T21, GP7 peptide of the human GPA ectodomain (human, not fully specified (N-terminus)).
T21 peptide: SVRTVYPP
Described as above.
Source text: as §1

Assay [30] concerns the target T22, GP12 peptide of the human GPA ectodomain (human, not fully specified (N-terminus)).
T22 peptide: YPPEEETG
The assay is described as above.
Source text: as §1

Assay [31] has as its target T10, Cynomolgus monkey glycophorin A on …. As to the kind of experiment: Fab on intact cyno RBC, unbound Fab by ELISA; 0 min after 200-fold dilution.
For assay [32] the target is unchanged. As to the kind of experiment: Fab on intact cyno RBC, unbound Fab by ELISA; 60 min after 200-fold dilution.
Procedure: as §2
The target in assay [33] is T12, GP15 peptide of the human GPA ectodomain. As to the kind of experiment: ELISA, Fab 0.05 ug/ml on biotin-peptide on streptavidin plate.
Source text: as §1
Assay [34] concerns the target T13, GP11 peptide of the human GPA ectodomain. The description is as above.
Source text: as §1
Assay [35] has as its target T14, GP14 peptide of the human GPA ectodomain. The description is as above.
Source text: as §1
For assay [36], the target named is T15, GP16 peptide of the human GPA ectodomain. The description is as above.
Source text: as §1
Assay [37] concerns the target T16, GP5 peptide of the human GPA ectodomain. Described as above.
Source text: as §1
Assay [38] deals with T17, GP13 peptide of the human GPA ectodomain. The assay is described as above.
Source text: as §1
Assay [39] has as its target T18, GP9 peptide of the human GPA ectodomain. The description is as above.
Source text: as §1
In assay [40] the target is T19, GP10 peptide of the human GPA ectodomain. The description is as above.
Source text: as §1
Assay [41] deals with T20, GP8 peptide of the human GPA ectodomain. Described as above.
Source text: as §1
The target in assay [42] is T21, GP7 peptide of the human GPA ectodomain. The assay is described as above.
Source text: as §1
Assay [43] deals with T22, GP12 peptide of the human GPA ectodomain. The description is as above.
Source text: as §1

The record followed here is patent US20190359687A1 (Bayer, published 2019).

Positions count from the first letter of the chain named. No end group written: not given here. *: point of attachment. Biotin = O=C1N[C@H]2[C@H](CS[C@H]2CCCCC(=O)*)N1

B1: TPP-5907 Fab (Fab, V domains shown)
VH: EVQLVQSGAEVKKPGASVKVSCKASGYTFTTYTIHWVRQAPGQGLEWMGYINPGSGYTRYNPKFKGRVTMTRDKSTSTAYMELRSLRSDDTAVYYCQTGTRDYWGQGTTVTVSS
VL: DIQLTQSPSFLSASVGDRVTITCRASSSVSYIYWFQQKPGKAPKLLIYATSTLQSGVPSRFSGSGSGTEYTLTISSLQPEDFATYYCHQRNSFPYTFGQGTKLEIKR
As to B1, the “fold improvement of affinity against the parental antibody” value in assay [1] is about 200 fold.

B2: TPP-7792 Fab (Fab, V domains shown)
VH: B1 VH with T33A, G54S, Q97W
VL: DIQLTQSPSFLSASVGDRVTITCRASSSVRYIYWFQQKPGKAPKLLIYATSFRQSGVPSRFSGSGSGTEYTLTISSLQPEDFATYYCHQRNSFPYTFGQGTKLEIK
notes: as m92
B2: the binding result in assay [2], in assay [3], in assay [4], in [5], in assay [6] and in [7] was “no binding (tested: 0.5 ug/ml)” in each case. Also, the binding result in assay [8] and in assay [9] was “no binding (tested: 0.5 ug/ml)” throughout.

B3: TPP-7792, affinity matured 6C12 Fab (Fab, V domains shown)
VH: B1 VH with T33A, G54S, Q97W
VL: B2 VL
notes: Tested as Fab with a 6xHIS tag
Take B3: the “percentage of input antibody bound” value was 92% in [10]; 98% in [11]; 96% in assay [12]; 94% in [13]; 97% in assay [14]; 93% in assay [15]. In addition, the “percentage of input antibody bound” value came out at 97% in assay [16]; 89% in [17]; 96% in assay [18]; 97% in assay [19]; 96% in assay [31]; 92% in [32]. Besides, the “binding signal in ELISA (relative light units)” value in [20] was 0 RLU; in [21], 2 RLU; in assay [22], 0 RLU; in [23] it was 0 RLU; in assay [24], 7230 RLU; in assay [25], 0 RLU. The “binding signal in ELISA (relative light units)” value was 534 RLU in assay [26]; 71 RLU in assay [27]; 5130 RLU in assay [28]; 1 RLU in assay [29]; 0 RLU in assay [30]; -1 RLU in assay [33]. For the same molecule, the “binding signal in ELISA (relative light units)” value was 0 RLU in assay [34]; -1 RLU in assay [35]; -1 RLU in assay [36]; 3500 RLU in assay [37]; -1 RLU in [38]; 18 RLU in [39]. Further, the “binding signal in ELISA (relative light units)” value in assay [40] was 14 RLU; in [41], 291 RLU; in [42] it was 0 RLU; in [43], -1 RLU.

B4: TPP-7790 Fab (Fab, V domains shown)
VH: B1 VH with T33A, G54S, G66H, Q97W
VL: B2 VL with R53L
notes: as m92
Take B4: the binding result in assay [2], in assay [3], in assay [4], in [5], in [6] and in [7] was “no binding (tested: 0.5 ug/ml)” throughout. In addition, the binding result in [8] and in assay [9] was “no binding (tested: 0.5 ug/ml)” each time.
